Experimental data published in a protein production outcome set (Wang et al. 2014).

Assay: label from the status in PepcDB records

Sequence | protein production
MTMIEPDPADFEPIHPYSLARISHVALQAGAVLAQSGASVRVVHEGARMVAEGLGVEVLGMRSGYASFEITLARGHHSFTRMTQIGPHGVNHRLDFAVRDLLKRAARGDMTPDAIEAELKRLQSETPRHPPWLVAIATGAACAAFGRLLGSDWLSFGPVLAAASIGQGVRHLLLGRRFNVFVVAAIVGCISAALGGLGARLIGSSTTELAMMASILLLVPGVPSTNAQTDVMDGYPTMGSARAVTVIMIMVFAVTGLWLAEFVLRIHT | failed
MEVRWCATSDPEQHKCGNMSEAFREAGIQPSLLCVRGTSADHCVQLIAAQEADAITLDGGAIYEAGKEHGLKPVVGEVYDQEVGTSYYAVAVVRRSSHVTIDTLKGVKSCHTGINRTVGWNVPVGYLVESGRLSVMGCDVLKAVSDYFGGSCVPGAGETSYSESLCRLCRGDSSGEGVCDKSPLERYYDYSGAFRCLAEGAGDVAFVKHSTVLENTDGKTLPSWGQALLSQDFELLCRDGSRADVTEWRQCHLARVPAHAVVVRADTDGGLIFRLLNEGQRLFSHEGSSFQMFSSEAYGQKDLLFKDSTSELVPIATQTYEAWLGHEYLHAMKGLLCDPNRLPPYLRWCVLSTPEIQKCGDMAVAFRRQRLKPEIQCVSAKSPQHCMERIQAEQVDAVTLSGEDIYTAGKKYGLVPAAGEHYAPEDSSNSYYVVAVVRRDSSHAFTLDELRGKRSCHAGFGSPAGWDVPVGALIQRGFIRPKDCDVLTAVSEFFNASCVPVNNPKNYPSSLCALCVGDEQGRNKCVGNSQERYYGYRGAFRCLVENAGDVAFVRHTTVFDNTNGHNSEPWAAELRSEDYELLCPNGARAEVSQFAACNLAQIPPHAVMVRPDTNIFTVYGLLDKAQDLFGDDHNKNGFKMFDSSNYHGQDLLFKDATVRAVPVGEKTTYRGWLGLDYVAALEGMSSQQC | failed
MGALRGRWAEEEALRFLLGKGYRLLWRNRRTPFGEVDLFMEKDGVYVVVEVKQRASARFGAPLEAITPGKVRRLLQSARFLLGRDDLPVRLEAVLVHGTPKDFRLEHLVLEL | failed
MIPEHLSIYTAYNANIDAIVKLNQETIQNLINAFDPDEVKRRIEEYPREINEPIDFVARLVHTLKLGKPAAVPLVNEKMNEWFDKTFRYEEERLGGQAGIIANTLAGLKIRKVIAYTPFLPKRLAELFKKGVLYPVVENGELQFKPIQEAYREGDPLKINRIFEFRKGLKFKLGDETIEIPNSGRFIVSARFESISRIETREDIKPFLGEIGKEVDGAIFSGYQGLRTKYSDGKDANYYLRRAKEDIIEFKEKDVKIHVEFASVQDRKLRKKIITNILPFVDSVGIDEAEIAQILSVLGYRELADRIFTYNRLEDSILGGMIILDELNFEILQVHTTYYLMYITHRDNPLSEEELAKSLEFGTTLAAARASLGDIRGPDDYKVGLKVPFNERSEYVKLRFEEAKSRLRMREYKVVVIPTRLVQNPVLTVGLGDTISAGAFLTYLEFLKRH | not failed
MYINHAAEMLLCNSSVVVRCRATRGVSESLARPGGVTMHKRLTEETHHSAGSPEQPEIAGLHRELAEARQALETLYAALDNVDAGLLILNEELRAVYSNPVLHVMFRANSAEEIRQNRPLYAEMLAASAQAVAVNLEDYVSRRLAWVQSGDPKPMDLAMTDGTALRCHLAVLPGGGRMLIYSDVTDIVRNAEELERLATTDGMTGVYNRRHFLTLADREWSRARRYERPMSFLMIDIDYFKAINDGFGHQVGDEMIVHLARLARDCKRDCDVLARLGGEEFALLLPETDLAQAEVVAERLRREVAGNALVVASHAIPATVSIGVATALPGMKDVSDLMKAADQALYDAKHAGRNRVICRACHDPAPTLVPALTPRCEAATMR | failed
RSEIVRLNSLMNDILNNIPVYLFVKDTGNDFRYLYWNKAFAEHSGISVQRAVGSTDADIFPDKKDAEHFREDDLKVMKLGRIEYLENYTTMSGEVRTVTTMKTVVPSGGQHPYIIGVSWDVT | failed
MADIINNIVGGRYYILELIGRGGSAIVYKARDIHNGGIYALKKYITSDPANRKRLLEGMERELEVLKNCTHPVLPKIFDLIKIEDAFFLVMEYIDGIDLKKYVDEYGTLSTKMLIKVMEQVCSGFYYLHSLSPAIVYRDLKPANIILCKDGRIKLIDFGIAKRYRTDIDVDKLALGSKGFAAPEQFGDSKGKGLYNTDIRADIYGIGTTMYYLKTAKTYNSVPGSKSLYSFKDYFKTSHKLRKIIKKCTKNNPDLRYQSCIEILCSIKTLHIIGK | failed
MQDNSVNETKNIVEVGIDSSIEESYLAYSMSVIIGRALPDARDGLKPVHRRILYAMHELGLTSKVAYKKSARIVGDVIGKYHPHGDNAVYDALVRMAQDFSMRLELVDGQGNFGSIDGDNAAAMRYTEARMTKASEEILRDIDKDTIDFVPNYDDTLKEPDILPSRLPNLLVNGANGIAVGMATSIPPHRMDEIIDALVHVLENPNAGLDEILEFVKGPDFPTGGIIYGKAGIIEAYKTGRGRVKVRAKVHVEKTKNKEIIVLDEMPFQTNKAKLVEQISDLAREKQIEGISEVRDESDREGIRVVIELKRDAMSEIVLNHLYKLTTMETTFSIILLAIYNKEPKIFTLLELLHLFLNHRKTIIIRRTIFELEKAKARAHILEGYLIALDNIDEIVRLIKTSQSPEAAKNALMERFTLSEIQSKAILEMRLQRLTGLERDKIKEEYQNLLELIDDLNGILKSEDRLNGVVKTELLEVKEQFSSPRRTEIQESYENIDIEDLIANEPMVVSMSYKGYVKRVDLKAYEKQNRGGKGKLSGSTYEDDFIENFFVANTHDILLFITNKGQLYHLKVYKIPEASRIAMGKAIVNLISLAPDEKIMATLSTKDFSDERSLAFFTKNGVVKRTNLSEFESNRSCGIRAIVLDEGDELVSAKVVDKNAKHLLIASHLGIFIKFPLEEVREIGRTTRGVIGIKLNENDFVVGAVVISDDGNKLLSVSENGLGKQTLAEAYRGQSRGGKGVIGMKLTQKTGNLVGVISVDDENLDLMILTASAKMIRVSIKDIRETGRNASGVKLINTADKVMYVNSCPKEEEPENLETSSAQNLFE | failed
MIIYILINIAIVLLILGFDLYRHRFRQLKFSSILLSVLINSMIDIFAINQFNFITMFTVTLFMIWTLLQIYLNFKLYPFVISDQKFIAIILAIVISLLQFITDKSSTQSVYMSIPYLSPTIFIIGAILLFVGTFKIDEVERLSLFRKIKRPMTTGTIIIILSLISTMILTPFWYVFLIIYSLLIGFILWQGVFFIKDKK | failed
MITLSQRIFIILESAWRRRYLIVLPIILMPFIGLTVAKLAPKHYDSHTSMLIQETAKMNPFLEDLAVSTMLKERLSALQTLLHSRHILGSVAEERGYIHESMSPQAIDNEINKLSANLSVSMAGKDLIRIDYRANNPDGMKDTLEAVSRHFTEQLLAPERSSMKDSSKFLSDNIEFRRQELDAAEEKLAEFKSQENTVLPEMQITSLDRLTKLKQRLYERQAELAGAKKRLGSIDLQLSKTNPVIGKIEEQIIRIRGELTLLQAKYTPQHSKVQGKLRNLNRLEEERSRLLSQTQPGLSSEQLWDIASSNSVEDLAKAPPILLSQLEELQQATSKVDALTEETRVLESMIKDIELQASTFGQNEKVLYQLQRDLALKRELYNDLVERFEMAKLTRSLGVFEQEKRVKIIDRPYTPSGPSNLPTILYAIAGVIGGIGFGIGMAIIAELCDTSIRRKDEIATLSTSPVLSRIPPQPVKCFNLSEDTHSTTNNLLSSMSKAN | failed
MAFAYPKLSEPDTKGEYADGKYKTEGTATEDYTERFQEEIQKVADDNFPGKKNVHLPWKETKEGDIAFIFKNPKKKPILTDSRGKPLKEGTVIRGGSKIRIAGVIAAWEKGAKRGVSLWPDAVRVIKLSEGLEHHHHHH | failed
MNIGTFDRLLFAYSIGSHILIVLMSIGLSVILPVLEYIAIKYKDVYYDLLTRRVAKALVMFFAVGTASGAVMAVELIDLFPKFMTIIAVVGVLPFYYEIFAFFLETIMLVSYYYYWDVFKNRMHHWLLTFGVAGGTLASAVFITMINAWMNTPNGFNISYYEKTGKLIDVNPFITALTPSTGREVFHVVIVTAFAGLMVLGAFFAYQYLRAKTEEAKTLYMKGLKVTFPMNMFLIIMAGLSGTLEMSGLLTYQPEKYAALDLNPYPIARDAPEHLFGTIVEKNGHYYVLGGIKIPFVQSLLAGNGNLNTPVPGLSQFPTSTWPPLAVHDTFDLMVIGGTLLGLFLLSVLIAWILKKKPYESKGFMVAQILFAILTIPIYIGGWVTDEVGRQPWIIYNVMTVYQAANYSPSIIVPGYLIMAFYTILMPFSYWYAFRLMKQGDVKKEISSYKMPSTAHGR | failed
MDYFRSPDGPMFMIICGEGPCSGIANDYINESLNKKLNISSGGSDNPWFFFGISYSGALSAWFRLKFPHLTCGSLASSAVVRAIYEFSEFDQQIGESAGQECKLALQETNKLLELGLKVKNKAVKSLFNATELDVDADFLYLTADAAVMAFQYGNPDKLCVPLVEAKKNGSDLVVTYSTYVREYCMRIWGLRVRTYNRKHLRNTVVTADSAYRLWWFQACTELGYFQVAPKYDSVRSHQINTTFHLDLCKSLFGKDVYPKVDATNLYYGGDRLAATKIIFTNGSEDPWRHASKQNSTHEMPSYIIKCRNCGHGSDIRGCPQSPMVIEGKSNNCSLPDYVNKVRQQMVEHIDLWLSECRQSIRSSI | not failed
MEKFMYSLGVSKKDKIYKDLLKIAIPTAIEFFLFNFISLTDNAMVAYLGDYPVAGVSLANKFFELFVTIGFSMAGAYNIIATRQYNQGDFKSFRNTFFISILTIILFSFPFILISIVNPFFLLRLISNDERAVYYGAAYLNIAIFSFVFAIIKGLIANALKVVEIVKFQVYISVFSVLLNFVFNYIFIFVFHMGVVGAAIATTVIRTLELIVYLVCTAFNKNSILHFKLDDLNINIKPFAQLIKFFIPILLNEFAWFFGYLVLTSIFIGIDTHKYAAYSISFSIYFIIFNIIHSFCISLNIMMGYEMHNSKKEIMKVAIYLSKIGLKLAFLTSFVLFIFSFFAPYIFYTLKYSHLIGIILRYSSVSAFFMALAFQYLFGFFRAGASPSFGAIMEGSVTFVYTIPIAFVLANYTNLPFEIIVFIPSLEDAIKLVVSLPYFYSERWIKSV | failed
MYEFNLVLLLLQQMCVFLVIAWLMSKTRLFIPLMQVTVRLPHKLLCYVTFSIFCIMGTYFGLHIEDSIANTRAIGAVMSGLLGGPVVGGLVGLTGGLHRYSMGGMTALSCMISTIVEGLLGGLVHSVLIRRGRPDKVFSPLTAGAITCVAELVQMLIILLIARPFDDALHLVSNIAAPMMVTNTVGAALFMRILLDKRAMFEKYTSAFSATALKVAASTEGILRQGFNEVNSMKVAQVLYQELDIGAVAITDREKLLAFTGIGDDHHLPGKPISSGYTLKAIETGEVVYADGNEVPYRCSLHPQCKLGSTLVIPLRGENQRVMGTIKLYEAKNRLFSSINRTLGEGIAQLLSAQILAGQYERQKALLTQSEIKLLHAQVNPHFLFNALNTIKAVIRRDSEQASQLVQYLSTFFRKNLKRPSEIVTLADEIEHVNAYLQIEKARFQSRLQVQLDVPSTLSRQKLPAFTLQPIVENAIKHGTSQLLDTGNVAIRARREGQHLMLDIEDNAGLYQPSAGSSGLGMSLVDKRLREHFGDDYGISVACEPDCFTRITLRLPLEEDA | failed
MEKLTTLTGVAVPLRRSNVDTDQIIPAVFLKRVKKSGFDDALFYAWRRDPEFVLNKPEYKQGKILVAGPDFGIGSSREHAVWALHDYGFRVVISSRFADIFYGNTAKNGVLAAIMPQESIELLWKLLDEEPGREMTVSLEDRTVTCGDVTLPFEVNDYTRWRLMNGYDDIDLTLQHEDDIIAYEKMRAEKFPFKPKTLPVKREPEQPIESAREGEYPDWQGPLADRGII | failed
MGHNGIINYEVDVQDNKIEDLKILKHSETSGIFNQVIDKLKQNIITEQSFNVDTISGATVMTQALLKSADKAVTDAGVDVQLEHHHHHH | not failed
MNESAGGRTPVPPAAWVFGLSTLIPFFIASGLFCYGPVAIRKSALLGLLAYSAAMVSYFGGVRTGLEIENPSPRWSVLGISLLFPLAGFGLLLGGLKFEAAWQLSGFLLVFLLQWVWDVTDHEGPSWRPRMRTLMTAGAAISLAFALEQALHM | failed
